{"source": "IntAct's records for PubMed 29892012", "parents": {"B1": {"name": "Kinetochore protein NDC80 homolog (Homo sapiens), O14777 (parent)", "chain": "MKRSSVSSGGAGRLSMQELRSQDVNKQGLYTPQTKEKPTFGKLSINKPTSERKVSLFGKRTSGHGSRNSQLGIFSSSEKIKDPRPLNDKAFIQQCIRQLCEFLTENGYAHNVSMKSLQAPSVKDFLKIFTFLYGFLCPSYELPDTKFEEEVPRIFKDLGYPFALSKSSMYTVGAPHTWPHIVAALVWLIDCIKIHTAMKESSPLFDDGQPWGEETEDGIMHNKLFLDYTIKCYESFMSGADSFDEMNAELQSKLKDLFNVDAFKLESLEAKNRALNEQIARLEQEREKEPNRLESLRKLKASLQGDVQKYQAYMSNLESHSAILDQKLNGLNEEIARVELECETIKQENTRLQNIIDNQKYSVADIERINHERNELQQTINKLTKDLEAEQQKLWNEELKYARGKEAIETQLAEYHKLARKLKLIPKGAENSKGYDFEIKFNPEAGANCLVKYRAQVYVPLKELLNETEEEINKALNKKMGLEDTLEQLNAMITESKRSVRTLKEEVQKLDDLYQQKIKEAEEEDEKCASELESLEKHKHLLESTVNQGLSEAMNELDAVQREYQLVVQTTTEERRKVGNNLQRLLEMVATHVGSVEKHLEEQIAKVDREYEECMSEDLSENIKEIRDKYEKKATLIKSSEE", "partner": "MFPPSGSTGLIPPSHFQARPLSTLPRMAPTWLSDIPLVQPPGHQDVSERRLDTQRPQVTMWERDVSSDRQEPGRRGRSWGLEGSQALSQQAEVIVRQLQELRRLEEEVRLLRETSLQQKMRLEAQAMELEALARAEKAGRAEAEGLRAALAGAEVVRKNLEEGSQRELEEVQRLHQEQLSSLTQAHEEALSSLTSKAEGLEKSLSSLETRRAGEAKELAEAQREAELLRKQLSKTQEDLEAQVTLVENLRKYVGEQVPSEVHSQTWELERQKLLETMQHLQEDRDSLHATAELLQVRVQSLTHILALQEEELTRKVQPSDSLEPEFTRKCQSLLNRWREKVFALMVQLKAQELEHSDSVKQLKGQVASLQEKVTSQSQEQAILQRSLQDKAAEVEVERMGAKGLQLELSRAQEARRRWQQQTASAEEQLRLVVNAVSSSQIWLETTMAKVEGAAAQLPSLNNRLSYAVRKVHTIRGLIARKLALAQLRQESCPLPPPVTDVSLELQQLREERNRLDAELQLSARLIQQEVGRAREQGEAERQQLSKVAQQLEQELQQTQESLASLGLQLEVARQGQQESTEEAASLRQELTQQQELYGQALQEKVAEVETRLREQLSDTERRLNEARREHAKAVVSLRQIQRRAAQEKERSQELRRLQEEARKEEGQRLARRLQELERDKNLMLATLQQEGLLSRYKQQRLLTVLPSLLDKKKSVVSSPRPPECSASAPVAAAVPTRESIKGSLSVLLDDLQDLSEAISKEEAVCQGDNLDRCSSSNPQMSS"}, "B2": {"name": "Kinetochore protein NDC80 homolog (Homo sapiens), O14777 (parent)", "chain": "B1 chain", "partner": "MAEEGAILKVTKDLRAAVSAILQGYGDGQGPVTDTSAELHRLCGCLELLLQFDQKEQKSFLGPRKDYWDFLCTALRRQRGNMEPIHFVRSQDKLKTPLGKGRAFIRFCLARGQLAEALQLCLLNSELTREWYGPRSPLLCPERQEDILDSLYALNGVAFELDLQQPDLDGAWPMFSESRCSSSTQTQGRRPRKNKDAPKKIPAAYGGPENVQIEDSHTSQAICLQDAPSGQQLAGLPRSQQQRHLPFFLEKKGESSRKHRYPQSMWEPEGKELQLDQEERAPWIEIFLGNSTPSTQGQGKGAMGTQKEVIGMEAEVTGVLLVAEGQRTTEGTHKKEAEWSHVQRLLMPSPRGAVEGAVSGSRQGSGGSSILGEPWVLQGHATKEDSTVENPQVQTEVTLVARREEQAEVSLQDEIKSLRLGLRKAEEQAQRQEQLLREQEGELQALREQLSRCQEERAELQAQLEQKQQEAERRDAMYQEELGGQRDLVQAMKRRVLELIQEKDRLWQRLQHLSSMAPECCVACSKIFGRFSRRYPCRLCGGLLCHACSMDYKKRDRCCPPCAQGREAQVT"}, "B3": {"name": "Mothers against decapentaplegic homolog 4 (Homo sapiens), Q13485 (parent)", "chain": "MDNMSITNTPTSNDACLSIVHSLMCHRQGGESETFAKRAIESLVKKLKEKKDELDSLITAITTNGAHPSKCVTIQRTLDGRLQVAGRKGFPHVIYARLWRWPDLHKNELKHVKYCQYAFDLKCDSVCVNPYHYERVVSPGIDLSGLTLQSNAPSSMMVKDEYVHDFEGQPSLSTEGHSIQTIQHPPSNRASTETYSTPALLAPSESNATSTANFPNIPVASTSQPASILGGSHSEGLLQIASGPQPGQQQNGFTGQPATYHHNSTTTWTGSRTAPYTPNLPHHQNGHLQHHPPMPPHPGHYWPVHNELAFQPPISNHPAPEYWCSIAYFEMDVQVGETFKVPSSCPIVTVDGYVDPSGGDRFCLGQLSNVHRTEAIERARLHIGKGVQLECKGEGDVWVRCLSDHAVFVQSYYLDREAGRAPGDAVHKIYPSAYIKVFDLRQCHRQMQQQAATAQAAAAAQAAAVAGNIPGPGSVGGIAPAISLSAAAGIGVDDLRRLCILRMSFVKGWGPDYPRQSIKETPCWIEIHLHRALQLLDEVLHTMPIADPQPLD"}, "B4": {"name": "Vesicle transport protein USE1 (Homo sapiens), Q9NZ43 (parent)", "chain": "MAASRLELNLVRLLSRCEAMAAEKRDPDEWRLEKYVGALEDMLQALKVHASKPASEVINEYSWKVDFLKGMLQAEKLTSSSEKALANQFLAPGRVPTTARERVPATKTVHLQSRARYTSEMRSELLGTDSAEPEMDVRKRTGVAGSQPVSEKQLAAELDLVLQRHQNLQEKLAEEMLGLARSLKTNTLAAQSVIKKDNQTLSHSLKMADQNLEKLKTESERLEQHTQKSVNWLLWAMLIIVCFIFISMILFIRIMPKLK"}}}
{"variants_of": "B1", "details": "with cchcr_human CCHCR1, Q8TD31"}
{"variant": "K288E", "effect of a mutation on the interaction": "with no effect"}
{"variants_of": "B2", "details": "with rufy4_human RUFY4, Q6ZNE9"}
{"variant": "K288E", "effect of a mutation on the interaction": "with no effect"}
{"variants_of": "B3", "details": "with ews_human EWSR1, Q01844"}
{"variant": "I500V", "effect of a mutation on the interaction": "disrupting interaction strength"}
{"variants_of": "B3", "details": "with smad3_human SMAD3, P84022"}
{"variant": "I500V", "effect of a mutation on the interaction": "with no effect"}
{"variants_of": "B4", "details": "with bscl2_human BSCL2, Q96G97"}
{"variant": "T217M", "effect of a mutation on the interaction": "with no effect"}
{"variants_of": "B4", "details": "with creb3_human CREB3, O43889"}
{"variant": "T217M", "effect of a mutation on the interaction": "with no effect"}
